Data reported in PMC6336407.

Key:
[1] = molecular target: IRE1 KR with N-terminal 6× His-tag (human); assay: BLI; His-tagged IRE1 KR coupled to Ni-NTA biosensors; 80S or 60S at 5 to 500 nM in solution; 25°C, 25 mM HEPES pH 7.4, 150 mM KCl, 5 mM MgCl2, 250 µM TCEP; OCTET RED384
[2] = molecular target: IRE1-KR43 labeled with RED dye (human); assay: MST; 100 nM IRE1-KR43 labeled with RED dye incubated with 80S at various concentrations for 30 min at 25°C; Monolith NT.115, 20% LED power, 40% IR-laser

Kd [1]: 0.0334 µM | koff [1]: 0.0598 s⁻¹ | kon [1]: 1.81e+06 M⁻¹ s⁻¹ | Kd [2]: 0.03 µM
Substance: purified 80S ribosomes (complex)
